From US20220332824A1 (published 2022)

Assays:
human PD-1 = human PD-1 (human, UniProt Q15116 25-288); experiment: FACS binding, CHO-K1 cells expressing human PD-1
CD47 = CD47 (UniProt Q08722 19-323); experiment: FACS
Chain of CD47 (Q08722 19-323): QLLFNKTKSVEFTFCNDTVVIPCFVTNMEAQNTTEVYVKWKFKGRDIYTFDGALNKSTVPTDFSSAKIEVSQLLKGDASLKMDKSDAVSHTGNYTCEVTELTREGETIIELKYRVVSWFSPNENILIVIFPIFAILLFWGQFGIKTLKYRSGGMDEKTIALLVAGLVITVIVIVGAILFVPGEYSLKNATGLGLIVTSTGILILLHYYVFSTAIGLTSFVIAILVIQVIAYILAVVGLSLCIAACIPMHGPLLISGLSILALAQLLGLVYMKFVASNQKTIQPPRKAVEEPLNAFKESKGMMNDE

Chain of human PD-1 (Q15116 25-288): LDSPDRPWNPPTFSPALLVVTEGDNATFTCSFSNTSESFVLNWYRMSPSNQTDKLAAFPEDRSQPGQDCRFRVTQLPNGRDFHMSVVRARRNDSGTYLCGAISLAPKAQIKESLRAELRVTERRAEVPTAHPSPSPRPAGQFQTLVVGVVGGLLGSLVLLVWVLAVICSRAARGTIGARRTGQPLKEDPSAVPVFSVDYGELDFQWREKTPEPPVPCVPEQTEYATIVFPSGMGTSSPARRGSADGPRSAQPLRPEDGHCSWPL

Binder | EC50 (human PD-1) [nM] | EC50 (CD47) [nM]
bispecific antibody PD1b-E-HN (bispecific antibody) heavy: not shown light: EIVLTQSPATLSLSPGERATLSCRASENVGTYISWYQQKPGQAPRLLIYGASNRYTGIPARFSGSGSGTDFTLTISSLEPEDFAVYYCGESYGHLYTFGGGTKVEIKRTVAAPSVFIFPPSDEQLKSGTASVVCLLNNFYPREAKVQWKVDNALQSGNSQESVTEQDSKDSTYSLSSTLTLSKADYEKHKVYACEVTHQGLSSPVTKSFNRGEC | 2.82 | 1.78
bispecific antibody PD1a-G15-HC (bispecific antibody) heavy: not shown light: EIVLTQSPATLSLSPGERATLSCRASENVGTYISWYQQKPGQAPRLLIYGASNRYTGIPARFSGSGSGTDFTLTISSLEPEDFAVYYCGESYGHLYTFGGGTKVEIKRTVAAPSVFIFPPSDEQLKSGTASVVCLLNNFYPREAKVQWKVDNALQSGNSQESVTEQDSKDSTYSLSSTLTLSKADYEKHKVYACEVTHQGLSSPVTKSFNRGEC | 4.75 | 0.968
bispecific antibody PD1a-E-HN (bispecific antibody) heavy: not shown light: EIVLTQSPATLSLSPGERATLSCRASENVGTYISWYQQKPGQAPRLLIYGASNRYTGIPARFSGSGSGTDFTLTISSLEPEDFAVYYCGESYGHLYTFGGGTKVEIKRTVAAPSVFIFPPSDEQLKSGTASVVCLLNNFYPREAKVQWKVDNALQSGNSQESVTEQDSKDSTYSLSSTLTLSKADYEKHKVYACEVTHQGLSSPVTKSFNRGEC | 4.15 | 1.41
bispecific antibody PD1a-E-HC (bispecific antibody) heavy: not shown light: EIVLTQSPATLSLSPGERATLSCRASENVGTYISWYQQKPGQAPRLLIYGASNRYTGIPARFSGSGSGTDFTLTISSLEPEDFAVYYCGESYGHLYTFGGGTKVEIKRTVAAPSVFIFPPSDEQLKSGTASVVCLLNNFYPREAKVQWKVDNALQSGNSQESVTEQDSKDSTYSLSSTLTLSKADYEKHKVYACEVTHQGLSSPVTKSFNRGEC | 2.6 | 1.09
bispecific antibody PD1b-E-HC (bispecific antibody) heavy: not shown light: EIVLTQSPATLSLSPGERATLSCRASENVGTYISWYQQKPGQAPRLLIYGASNRYTGIPARFSGSGSGTDFTLTISSLEPEDFAVYYCGESYGHLYTFGGGTKVEIKRTVAAPSVFIFPPSDEQLKSGTASVVCLLNNFYPREAKVQWKVDNALQSGNSQESVTEQDSKDSTYSLSSTLTLSKADYEKHKVYACEVTHQGLSSPVTKSFNRGEC | 3.25 | 0.804
bispecific antibody PD1a-E-LC (bispecific antibody) heavy: not shown light: EIVLTQSPATLSLSPGERATLSCRASENVGTYISWYQQKPGQAPRLLIYGASNRYTGIPARFSGSGSGTDFTLTISSLEPEDFAVYYCGESYGHLYTFGGGTKVEIKRTVAAPSVFIFPPSDEQLKSGTASVVCLLNNFYPREAKVQWKVDNALQSGNSQESVTEQDSKDSTYSLSSTLTLSKADYEKHKVYACEVTHQGLSSPVTKSFNRGECEPKSSDKTHTSPPSPEVQLVESGGGLVQPGGSLRLSCAVSGNIYNRNFMGWFRQAPGKGREGVSAIYTGTSRTYYADSVKGRFTISRDNAKNTVYLQMNSLRPEDTAVYYCAADLRDGFWDTGVWNTWGQGTLVTVSS | 7.74 | –
bispecific antibody PD1b-E-LC (bispecific antibody) heavy: not shown light: EIVLTQSPATLSLSPGERATLSCRASENVGTYISWYQQKPGQAPRLLIYGASNRYTGIPARFSGSGSGTDFTLTISSLEPEDFAVYYCGESYGHLYTFGGGTKVEIKRTVAAPSVFIFPPSDEQLKSGTASVVCLLNNFYPREAKVQWKVDNALQSGNSQESVTEQDSKDSTYSLSSTLTLSKADYEKHKVYACEVTHQGLSSPVTKSFNRGECEPKSSDKTHTSPPSPEVQLVESGGGLVQPGGSLRLSCAVSGNIYNRNFMGWFRQAPGKGLEGVSAIYTGTSRTYYADSVKGRFTISRDNSKNTVYLQMNSLRAEDTAVYYCAADLREGFWDTGVWNTWGQGTLVTVSS | 2.34 | –
anti-CD47 monoclonal antibody (heavy chain H0 and light chain L0) (antibody, V domains shown) VH: EVQLVQSGAEVKKPGSSVKVSCKASGYSFTHHWIHWVRQAPGQGLEWMGMIDASDSETRLSQKFKDRVTITADKSTSTAYMELSSLRSEDTAVYYCARLGRYYFDYWGQGTTVTVSS VL: EIVLTQSPATLSLSPGERATLSCRASENVGTYISWYQQKPGQAPRLLIYGASNRYTGIPARFSGSGSGTDFTLTISSLEPEDFAVYYCGESYGHLYTFGGGTKVEIKR | ~4.44 | 1.46
bispecific antibody PD1a-E-LN (bispecific antibody) heavy: not shown light: EVQLVESGGGLVQPGGSLRLSCAVSGNIYNRNFMGWFRQAPGKGREGVSAIYTGTSRTYYADSVKGRFTISRDNAKNTVYLQMNSLRPEDTAVYYCAADLRDGFWDTGVWNTWGQGTLVTVSSEPKSSDKTHTSPPSPEIVLTQSPATLSLSPGERATLSCRASENVGTYISWYQQKPGQAPRLLIYGASNRYTGIPARFSGSGSGTDFTLTISSLEPEDFAVYYCGESYGHLYTFGGGTKVEIKRTVAAPSVFIFPPSDEQLKSGTASVVCLLNNFYPREAKVQWKVDNALQSGNSQESVTEQDSKDSTYSLSSTLTLSKADYEKHKVYACEVTHQGLSSPVTKSFNRGEC | 3.69 | –
bispecific antibody PD1b-E-LN (bispecific antibody) heavy: not shown light: EVQLVESGGGLVQPGGSLRLSCAVSGNIYNRNFMGWFRQAPGKGLEGVSAIYTGTSRTYYADSVKGRFTISRDNSKNTVYLQMNSLRAEDTAVYYCAADLREGFWDTGVWNTWGQGTLVTVSSEPKSSDKTHTSPPSPEIVLTQSPATLSLSPGERATLSCRASENVGTYISWYQQKPGQAPRLLIYGASNRYTGIPARFSGSGSGTDFTLTISSLEPEDFAVYYCGESYGHLYTFGGGTKVEIKRTVAAPSVFIFPPSDEQLKSGTASVVCLLNNFYPREAKVQWKVDNALQSGNSQESVTEQDSKDSTYSLSSTLTLSKADYEKHKVYACEVTHQGLSSPVTKSFNRGEC | 3.02 | –
